The text below walks through data of patent publication US20250304927A1, “PRO-PEPTIDE VARIANTS FOR MODULATING ACTIVITY OF TRANSGLUTAMINASES” (CURIE CO. INC., priority 2022, published 2025).

T1: thermostable variant of Streptomyces mobaraensis transglutaminase (Streptomyces mobaraensis, UniProt P81453 79-407)
T1 sequence: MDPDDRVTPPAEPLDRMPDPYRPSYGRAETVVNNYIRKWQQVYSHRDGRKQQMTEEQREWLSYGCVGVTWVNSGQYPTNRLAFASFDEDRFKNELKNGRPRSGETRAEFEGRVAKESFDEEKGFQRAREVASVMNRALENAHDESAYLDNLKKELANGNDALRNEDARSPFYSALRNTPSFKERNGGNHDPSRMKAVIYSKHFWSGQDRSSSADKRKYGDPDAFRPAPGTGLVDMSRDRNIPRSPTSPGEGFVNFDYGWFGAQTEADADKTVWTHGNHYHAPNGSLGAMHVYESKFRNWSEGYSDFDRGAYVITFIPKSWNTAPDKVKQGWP

One test has as its target T1, thermostable variant of Streptomyces …. Kind of test: cell-based or functional assay.
For MDNGAGEERKSYAETYRLTADDVANINALNESAPAASSAGPSFRAP [pro-peptide variant T9R], the “Improvement in pH responsiveness of inhibitory peptide relative to WT” value was above 1.2 fold.
In the case of MDNGAGEETKSYAETYRLTADDVANINALNESAPAASSAGPSFRAN [pro-peptide variant P46N], the “Improvement in pH responsiveness of inhibitory peptide relative to WT” value was above 5 fold.
In the case of MDNGAGEETKSYAETYRLTADDVANINALNESAPAASHAGPSFRAP [pro-peptide variant S38H], the “Improvement in pH responsiveness of inhibitory peptide relative to WT” value is above 1.2 fold.
Take MDNGAGEETKSYAETYRLTADDVANINALNESAPAASSAGPSFRAQ [pro-peptide variant P46Q]: the “Improvement in pH responsiveness of inhibitory peptide relative to WT” value is above 1.2 fold.
On the same count and under the same terms, to MDNGAGEETKSYAETYRLTADDVANINALNESAPAASSAGPSFRAV [pro-peptide variant P46V] belongs above 1.2 fold.
The same measure, in the same setting: for MDNGAGEEVKSYAETYRLTADDVANINALNESAPAASSAGPSFRAP [pro-peptide variant T9V] the value was above 1.2 fold; for MDNGAGEETKSYAETYRLTADDVANINALNESAPAASSAGPSFRAW [pro-peptide variant P46W], above 1.2 fold.
The same measure, in the same setting: for MDNGAGEETKSYAETYRITADDVANINALNESAPAASSAGPSFRAP [pro-peptide variant L18I] the value was above 1.2 fold; for MDNGAGEETKSYAQTYRLTADDVANINALNESAPAASSAGPSFRAP [pro-peptide variant E14Q], above 1.2 fold; for MDNGAGEETKSYAETYRLTAVDVANINALNESAPAASSAGPSFRAP [pro-peptide variant D21V], above 1.2 fold.
As for MDNGAGEETKSYAETYRLTADDVANINALNESAPAASSAGPSFRAD [pro-peptide variant P46D], the “Improvement in pH responsiveness of inhibitory peptide relative to WT” value was above 1.2 fold.
For MDNGAGEETKSYASTYRLTADDVANINALNESAPAASSAGPSFRAP [pro-peptide variant E14S], the “Improvement in pH responsiveness of inhibitory peptide relative to WT” value was above 5 fold.
The same measure, in the same setting: to MDNGAGEETKSYAETYRLTADDVANINALNESAPAASSAGPSFRAC [pro-peptide variant P46C] belongs above 1.2 fold; to MDNGAGEETKSYAETYRLTADAVANINALNESAPAASSAGPSFRAP [pro-peptide variant D22A], above 1.2 fold.
In the case of MDNGAGEETKSYAETYRLTADDVANINALNESAPAASSAGPSFRAK [pro-peptide variant P46K], the “Improvement in pH responsiveness of inhibitory peptide relative to WT” value is above 1.2 fold.
Take MDNGAGEETKSYAETYRLTADDVANINALNESAPAASSAGPSFRAS [pro-peptide variant P46S]: the “Improvement in pH responsiveness of inhibitory peptide relative to WT” value is above 1.2 fold.
Take MDNGAGEETKSYAETYRLTAMDVANINALNESAPAASSAGPSFRAP [pro-peptide variant D21M]: the “Improvement in pH responsiveness of inhibitory peptide relative to WT” value is above 5 fold.
The same measure, in the same setting: for MDNGAGEETKSYAETYRLTAFDVANINALNESAPAASSAGPSFRAP [pro-peptide variant D21F] the value was above 1.2 fold; for MDNGAGEEYKSYAETYRLTADDVANINALNESAPAASSAGPSFRAP [pro-peptide variant T9Y], above 1.2 fold; for MDNGAGEETKSYAETYRLTADDVANINALNESAPAASSAGPSFRAR [pro-peptide variant P46R], above 1.2 fold.
In the case of MDNGAGEETKSYAETYRLTADDVVNINALNESAPAASSAGPSFRAP [pro-peptide variant A24V], the “Improvement in pH responsiveness of inhibitory peptide relative to WT” value is above 5 fold.
Turning to MDNGAGEETKSYAETYRLTASDVANINALNESAPAASSAGPSFRAP [pro-peptide variant D21S], the “Improvement in pH responsiveness of inhibitory peptide relative to WT” value is above 1.2 fold.
MDNGAGEETKSYAETYRLTADDVANINALNESAPAASSAGPSFRAA [pro-peptide variant P46A]: the “Improvement in pH responsiveness of inhibitory peptide relative to WT” value was above 1.2 fold.
As to MDNGAGEETKSYAEDYRLTADDVANINALNESAPAASSAGPSFRAP [pro-peptide variant T15D], the “Improvement in pH responsiveness of inhibitory peptide relative to WT” value is above 1.2 fold.
On to MDNGAGEETKSYAETYRLTADDVANINALNESAPAASFAGPSFRAP [pro-peptide variant S38F], for which the “Improvement in pH responsiveness of inhibitory peptide relative to WT” value was above 1.2 fold.
In the case of MDNGAGEETKSYAETYRLTADDVANINALNESAPAASTAGPSFRAP [pro-peptide variant S38T], the “Improvement in pH responsiveness of inhibitory peptide relative to WT” value was above 1.2 fold.
Turning to MDNGAGEETKSYAEVYRLTADDVANINALNESAPAASSAGPSFRAP [pro-peptide variant T15V], the “Improvement in pH responsiveness of inhibitory peptide relative to WT” value was above 1.2 fold.
Regarding MDNGAGEETKSYAETYRLTADDVANINALNESAPAASSAGPSFRAI [pro-peptide variant P46I], the “Improvement in pH responsiveness of inhibitory peptide relative to WT” value is above 1.2 fold.
Turning to MDNGAGEETKSYAETYRLTADDVANINALNESAPAASVAGPSFRAP [pro-peptide variant S38V], the “Improvement in pH responsiveness of inhibitory peptide relative to WT” value was above 1.2 fold.
Regarding MDNGAGEETKSYAETYRLTADDVANINALNESAPAASSAGPSFRAE [pro-peptide variant P46E], the “Improvement in pH responsiveness of inhibitory peptide relative to WT” value was above 1.2 fold.
MDNGAGEETKSYAETYRLTACDVANINALNESAPAASSAGPSFRAP [pro-peptide variant D21C]: the “Improvement in pH responsiveness of inhibitory peptide relative to WT” value is above 1.2 fold.
Same read-out and setting: to MDNGAGEEWKSYAETYRLTADDVANINALNESAPAASSAGPSFRAP [pro-peptide variant T9W] belongs above 1.2 fold; to MDNGAGEETKSYAETYRLTADDVANINALNESAPAASSAGPSFRAL [pro-peptide variant P46L], above 1.2 fold.

The target is the same in another test. Kind of test: cell-based or functional assay. This is another data set of the same source.
MDNGAGEETKYYAETYRLTADDVANINALNESAPAASSAGPSFRAP [pro-peptide variant S11Y]: the “Reduction in binding affinity of inhibitory peptide relative to WT” value is above 1.2 fold.
Take MDNGAGEETKGYAETYRLTADDVANINALNESAPAASSAGPSFRAP [pro-peptide variant S11G]: the “Reduction in binding affinity of inhibitory peptide relative to WT” value was above 5 fold.
In the case of MDNGAGEETCSYAETYRLTADDVANINALNESAPAASSAGPSFRAP [pro-peptide variant K10C], the “Reduction in binding affinity of inhibitory peptide relative to WT” value was above 1.2 fold.
Consider MDNGAGEETKHYAETYRLTADDVANINALNESAPAASSAGPSFRAP [pro-peptide variant S11H], for which the “Reduction in binding affinity of inhibitory peptide relative to WT” value was above 1.2 fold.

The target is the same in another test. Kind of test: cell-based or functional assay. This is another data set of the same source.
As for MDNGAGEERKSYAETYRLTADDVANINALNESAPAASSAGPSFRAP [pro-peptide variant T9R], the “Improvement in binding affinity of inhibitory peptide relative to WT” value is above 1.2 fold.
Consider MDNGAGEETKSYAETYRLTADDVANINALNESAPAASSAGPSFRAN [pro-peptide variant P46N], for which the “Improvement in binding affinity of inhibitory peptide relative to WT” value was above 1.2 fold.
MDNGAGEETKSYAETYRLTADDVANINALNESAPAASHAGPSFRAP [pro-peptide variant S38H]: the “Improvement in binding affinity of inhibitory peptide relative to WT” value was above 1.2 fold.
For the molecule MDNGAGEETKSYAETYRLTADDVANINALNESAPAASSAGPSFRAQ [pro-peptide variant P46Q], the “Improvement in binding affinity of inhibitory peptide relative to WT” value was above 1.2 fold.
In the case of MDNGAGEETKSYAETYRLTADDVANINALNESAPAASSAGPSFRAV [pro-peptide variant P46V], the “Improvement in binding affinity of inhibitory peptide relative to WT” value was above 1.2 fold.
With MDNGAGEEVKSYAETYRLTADDVANINALNESAPAASSAGPSFRAP [pro-peptide variant T9V], the “Improvement in binding affinity of inhibitory peptide relative to WT” value is above 1.2 fold.
On to MDNGAGEETKSYAETYRLTADDVANINALNESAPAASSAGPSFRAW [pro-peptide variant P46W], for which the “Improvement in binding affinity of inhibitory peptide relative to WT” value was above 1.2 fold.
As to MDNGAGEETKSYAETYRITADDVANINALNESAPAASSAGPSFRAP [pro-peptide variant L18I], the “Improvement in binding affinity of inhibitory peptide relative to WT” value is above 1.2 fold.
For the molecule MDNGAGEETKSYAQTYRLTADDVANINALNESAPAASSAGPSFRAP [pro-peptide variant E14Q], the “Improvement in binding affinity of inhibitory peptide relative to WT” value was above 1.2 fold.
Regarding MDNGAGEETKSYAETYRLTAVDVANINALNESAPAASSAGPSFRAP [pro-peptide variant D21V], the “Improvement in binding affinity of inhibitory peptide relative to WT” value is above 1.2 fold.
Take MDNGAGEETKSYAETYRLTADDVANINALNESAPAASSAGPSFRAD [pro-peptide variant P46D]: the “Improvement in binding affinity of inhibitory peptide relative to WT” value is above 1.2 fold.
MDNGAGEETKSYASTYRLTADDVANINALNESAPAASSAGPSFRAP [pro-peptide variant E14S]: the “Improvement in binding affinity of inhibitory peptide relative to WT” value was above 1.2 fold.
Take MDNGAGEETKSYAETYRLTADDVANINALNESAPAASSAGPSFRAC [pro-peptide variant P46C]: the “Improvement in binding affinity of inhibitory peptide relative to WT” value is above 1.2 fold.
For MDNGAGEETKSYAETYRLTADAVANINALNESAPAASSAGPSFRAP [pro-peptide variant D22A], the “Improvement in binding affinity of inhibitory peptide relative to WT” value was above 1.2 fold.
Consider MDNGAGEETKSYAETYRLTADDVANINALNESAPAASSAGPSFRAK [pro-peptide variant P46K], for which the “Improvement in binding affinity of inhibitory peptide relative to WT” value is above 1.2 fold.
MDNGAGEETKSYAETYRLTADDVANINALNESAPAASSAGPSFRAS [pro-peptide variant P46S]: the “Improvement in binding affinity of inhibitory peptide relative to WT” value is above 1.2 fold.
The same measure, in the same setting: for MDNGAGEETKSYAETYRLTAMDVANINALNESAPAASSAGPSFRAP [pro-peptide variant D21M] the value was above 1.2 fold; for MDNGAGEETKSYAETYRLTAFDVANINALNESAPAASSAGPSFRAP [pro-peptide variant D21F], above 1.2 fold; for MDNGAGEEYKSYAETYRLTADDVANINALNESAPAASSAGPSFRAP [pro-peptide variant T9Y], above 1.2 fold.
On to MDNGAGEETKSYAETYRLTADDVANINALNESAPAASSAGPSFRAR [pro-peptide variant P46R], for which the “Improvement in binding affinity of inhibitory peptide relative to WT” value is above 1.2 fold.
Regarding MDNGAGEETKSYAETYRLTADDVVNINALNESAPAASSAGPSFRAP [pro-peptide variant A24V], the “Improvement in binding affinity of inhibitory peptide relative to WT” value was above 1.2 fold.
On the same count and under the same terms, for MDNGAGEETKSYAETYRLTASDVANINALNESAPAASSAGPSFRAP [pro-peptide variant D21S] the value was above 1.2 fold; for MDNGAGEETKSYAETYRLTADDVANINALNESAPAASSAGPSFRAA [pro-peptide variant P46A], above 1.2 fold; for MDNGAGEETKSYAEDYRLTADDVANINALNESAPAASSAGPSFRAP [pro-peptide variant T15D], above 1.2 fold.
In the case of MDNGAGEETKSYAETYRLTADDVANINALNESAPAASFAGPSFRAP [pro-peptide variant S38F], the “Improvement in binding affinity of inhibitory peptide relative to WT” value was above 1.2 fold.
With MDNGAGEETKSYAETYRLTADDVANINALNESAPAASTAGPSFRAP [pro-peptide variant S38T], the “Improvement in binding affinity of inhibitory peptide relative to WT” value is above 1.2 fold.
Regarding MDNGAGEETKSYAEVYRLTADDVANINALNESAPAASSAGPSFRAP [pro-peptide variant T15V], the “Improvement in binding affinity of inhibitory peptide relative to WT” value was above 1.2 fold.
Same read-out and setting: for MDNGAGEETKSYAETYRLTADDVANINALNESAPAASSAGPSFRAI [pro-peptide variant P46I] the value was above 1.2 fold.
The same measure, in the same setting: to MDNGAGEETKSYAETYRLTADDVANINALNESAPAASVAGPSFRAP [pro-peptide variant S38V] belongs above 1.2 fold; to MDNGAGEETKSYAETYRLTADDVANINALNESAPAASSAGPSFRAE [pro-peptide variant P46E], above 1.2 fold.
On the same count and under the same terms, to MDNGAGEETKSYAETYRLTACDVANINALNESAPAASSAGPSFRAP [pro-peptide variant D21C] belongs above 1.2 fold; to MDNGAGEEWKSYAETYRLTADDVANINALNESAPAASSAGPSFRAP [pro-peptide variant T9W], above 1.2 fold.
Turning to MDNGAGEETKSYAETYRLTADDVANINALNESAPAASSAGPSFRAL [pro-peptide variant P46L], the “Improvement in binding affinity of inhibitory peptide relative to WT” value was above 1.2 fold.
